Each block holds one substance with its values, some of them ahead of it.
Legend:
[1] = target: CD28 (human) (UniProt P10747); assay: flow cytometry, transfected cells
[2] = target: PD-L1 (human) (UniProt Q9NZQ7); assay: flow cytometry, transfected cells
[3] = target: human ICOS (human); assay: flow cytometry, transfected cells
[4] = target: CTLA4 (human) (UniProt P16410); assay: flow cytometry, transfected cells; column head doubtful
[5] = target: PD-L1 (human) (UniProt Q9NZQ7); assay: as above
[6] = target: CD80 (Homo sapiens (Human)) (UniProt P33681); assay: flow cytometry, cells expressing CD80
[7] = target: PD-1 (Homo sapiens (Human)) (UniProt Q15116); assay: flow cytometry, cells expressing PD-1
[8] = target: PD-1 (Homo sapiens (Human)) (UniProt Q15116); assay: flow cytometry, cells expressing PD-1; vs WT PD-L1 (IgV + IgC) Fc
[9] = target: human CD28, full-length, expressed on transfected Expi293 cells (human) (UniProt P10747); assay: flow cytometry on CD28-expressing Expi293 cells
[10] = target: human ICOS, full-length, expressed on transfected Expi293 cells (human) (UniProt Q9Y6W8); assay: flow cytometry on ICOS-expressing Expi293 cells
[11] = target: human B7-H6, full-length, expressed on transfected Expi293 cells (human) (UniProt Q68D85); assay: flow cytometry on B7-H6-expressing Expi293 cells
[12] = target: CD112R (full length, expressed on transfected cells) (human) (UniProt Q6DKI7); assay: flow cytometry on cells expressing the target, 20 nM
[13] = target: T1, CD96 (expressed on cells) (UniProt P40200); assay: as above
T1 sequence (looked up): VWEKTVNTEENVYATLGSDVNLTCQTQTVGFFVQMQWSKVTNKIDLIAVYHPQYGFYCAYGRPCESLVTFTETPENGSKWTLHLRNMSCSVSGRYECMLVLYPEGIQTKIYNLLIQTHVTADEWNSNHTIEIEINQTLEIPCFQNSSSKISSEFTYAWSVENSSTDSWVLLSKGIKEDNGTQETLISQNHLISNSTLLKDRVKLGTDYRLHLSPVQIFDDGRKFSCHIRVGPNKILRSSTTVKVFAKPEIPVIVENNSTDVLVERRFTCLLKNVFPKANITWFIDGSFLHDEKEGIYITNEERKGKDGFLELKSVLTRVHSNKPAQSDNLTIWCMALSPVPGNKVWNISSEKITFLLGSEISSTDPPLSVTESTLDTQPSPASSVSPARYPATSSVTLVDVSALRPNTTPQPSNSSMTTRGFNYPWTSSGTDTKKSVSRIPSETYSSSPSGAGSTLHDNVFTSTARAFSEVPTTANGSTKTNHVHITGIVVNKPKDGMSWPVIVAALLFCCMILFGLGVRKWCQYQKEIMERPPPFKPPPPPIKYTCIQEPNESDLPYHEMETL

[14] = target: human CD112R, full length, expressed on transfected Expi293 cells (human) (UniProt Q6DKI7); assay: flow cytometry, Expi293 cells transfected with full-length human CD112R
[15] = target: human B7-H6 (human) (UniProt Q68D85); assay: flow cytometry; MFI vs m9
[16] = target: human B7-H6 (human) (UniProt Q68D85); assay: flow cytometry, transfected cells
[17] = target: T2, TIGIT (human) (UniProt Q495A1); assay: flow cytometry on TIGIT-expressing cells
T2 sequence: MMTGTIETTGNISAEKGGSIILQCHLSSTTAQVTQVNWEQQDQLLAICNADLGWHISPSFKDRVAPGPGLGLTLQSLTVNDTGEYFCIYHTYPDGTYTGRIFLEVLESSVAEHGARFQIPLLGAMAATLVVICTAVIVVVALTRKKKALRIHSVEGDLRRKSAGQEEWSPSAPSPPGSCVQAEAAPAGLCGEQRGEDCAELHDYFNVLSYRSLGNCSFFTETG

[18] = target: CD28 (human) (UniProt P10747); assay: flow cytometry on HEK293 cells transfected with CD28
[19] = target: CTLA4 (human) (UniProt P16410); assay: flow cytometry on HEK293 cells transfected with CTLA4
[20] = target: PD-L1 (human) (UniProt Q9NZQ7); assay: flow cytometry on HEK293 cells transfected with PD-L1
[21] = target: CTLA4 (human) (UniProt P16410); assay: flow cytometry, MFI on CTLA4 cells over MFI on CD28 cells
[22] = target: T3, human CD226, full length, expressed on transfected Expi293 cells (human) (UniProt Q15762); assay: flow cytometry, Expi293 cells transfected with full-length human CD226
T3 sequence: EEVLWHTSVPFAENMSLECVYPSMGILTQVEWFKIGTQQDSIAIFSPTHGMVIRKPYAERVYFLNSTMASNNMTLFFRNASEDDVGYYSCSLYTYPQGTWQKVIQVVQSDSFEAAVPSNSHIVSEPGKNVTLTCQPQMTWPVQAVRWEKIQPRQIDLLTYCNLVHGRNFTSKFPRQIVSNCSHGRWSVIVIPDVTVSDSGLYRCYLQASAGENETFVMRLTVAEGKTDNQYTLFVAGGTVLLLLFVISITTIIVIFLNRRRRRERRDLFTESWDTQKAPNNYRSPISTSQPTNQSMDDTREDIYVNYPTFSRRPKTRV

[23] = target: CTLA4 (human) (UniProt P16410); assay: flow cytometry, transfected cells
[24] = target: CD28 (human) (UniProt P10747); assay: flow cytometry; MFI vs m21
[25] = target: PD-L1 (human) (UniProt Q9NZQ7); assay: flow cytometry; MFI vs m21
[26] = target: PD-1-Fc; assay: Fortebio (BLI), PD-1-Fc
[27] = target: PD-1 (Homo sapiens (Human)) (UniProt Q15116); assay: flow cytometry, Jurkat/PD-1 cells
[28] = target: PD-1 (Homo sapiens (Human)) (UniProt Q15116); assay: flow cytometry, Jurkat/PD-1 cells; vs wildtype PD-L2 IgV-Fc
[29] = target: T4, CD96 (UniProt P40200); assay: flow cytometry on CD96-expressing cells
T4 sequence (looked up): T1 sequence (looked up)

[30] = target: CD112R (human) (UniProt Q6DKI7); assay: flow cytometry on CD112R-expressing cells
[31] = target: CD28 (human) (UniProt P10747); assay: flow cytometry; MFI vs m14
[32] = target: human B7-H6 (human) (UniProt Q68D85); assay: flow cytometry; MFI vs m14
[33] = target: CD80 (Homo sapiens (Human)) (UniProt P33681); assay: flow cytometry, cells expressing CD80; vs WT PD-L1 (IgV + IgC) Fc
Target sequence in this assay (P33681 35-288 limits assumed): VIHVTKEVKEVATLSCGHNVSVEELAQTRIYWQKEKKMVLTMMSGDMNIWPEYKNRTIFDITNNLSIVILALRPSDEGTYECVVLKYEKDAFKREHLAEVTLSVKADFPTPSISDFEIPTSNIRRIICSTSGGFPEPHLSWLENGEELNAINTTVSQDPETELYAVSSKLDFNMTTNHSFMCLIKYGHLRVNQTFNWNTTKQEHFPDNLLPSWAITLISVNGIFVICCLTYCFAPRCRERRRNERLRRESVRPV

[34] = target: human B7-H6 (human) (UniProt Q68D85); assay: flow cytometry; MFI vs m10
[35] = target: CTLA4 (human) (UniProt P16410); assay: flow cytometry; MFI vs m21

Sequence of Domain 1: ICOSL WT / Domain 2: CD80 WT / Fc (Fc fusion) (chain): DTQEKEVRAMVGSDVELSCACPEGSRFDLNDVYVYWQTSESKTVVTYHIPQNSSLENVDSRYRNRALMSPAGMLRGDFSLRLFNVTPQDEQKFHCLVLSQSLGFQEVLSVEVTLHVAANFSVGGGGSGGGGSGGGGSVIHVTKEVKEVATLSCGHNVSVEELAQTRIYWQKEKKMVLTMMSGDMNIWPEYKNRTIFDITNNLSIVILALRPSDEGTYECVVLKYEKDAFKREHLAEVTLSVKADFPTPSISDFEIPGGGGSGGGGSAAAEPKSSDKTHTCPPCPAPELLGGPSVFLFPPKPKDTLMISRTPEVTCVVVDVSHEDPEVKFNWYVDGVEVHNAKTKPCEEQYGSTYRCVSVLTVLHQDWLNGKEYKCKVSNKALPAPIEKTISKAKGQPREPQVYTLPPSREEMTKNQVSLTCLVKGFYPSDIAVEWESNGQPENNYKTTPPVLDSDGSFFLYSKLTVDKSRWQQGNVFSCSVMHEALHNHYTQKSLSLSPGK
Sequence of CTLA4 (human) (P16410 36-223 limits assumed): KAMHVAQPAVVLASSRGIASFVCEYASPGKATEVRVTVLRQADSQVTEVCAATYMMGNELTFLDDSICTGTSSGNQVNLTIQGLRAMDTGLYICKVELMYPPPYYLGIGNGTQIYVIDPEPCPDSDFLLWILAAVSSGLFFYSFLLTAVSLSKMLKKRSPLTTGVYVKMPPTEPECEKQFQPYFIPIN
Sequence of PD-1 (Homo sapiens (Human)) (Q15116 21-288 limits assumed, form in doubt): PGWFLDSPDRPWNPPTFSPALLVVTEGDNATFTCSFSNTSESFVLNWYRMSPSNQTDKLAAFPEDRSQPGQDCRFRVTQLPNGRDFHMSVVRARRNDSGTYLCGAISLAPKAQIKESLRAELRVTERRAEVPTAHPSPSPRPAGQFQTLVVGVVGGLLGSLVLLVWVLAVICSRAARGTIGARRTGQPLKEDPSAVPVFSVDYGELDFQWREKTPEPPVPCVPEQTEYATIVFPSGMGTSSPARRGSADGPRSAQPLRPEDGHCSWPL
Sequence of human B7-H6 (human) (Q68D85 25-454): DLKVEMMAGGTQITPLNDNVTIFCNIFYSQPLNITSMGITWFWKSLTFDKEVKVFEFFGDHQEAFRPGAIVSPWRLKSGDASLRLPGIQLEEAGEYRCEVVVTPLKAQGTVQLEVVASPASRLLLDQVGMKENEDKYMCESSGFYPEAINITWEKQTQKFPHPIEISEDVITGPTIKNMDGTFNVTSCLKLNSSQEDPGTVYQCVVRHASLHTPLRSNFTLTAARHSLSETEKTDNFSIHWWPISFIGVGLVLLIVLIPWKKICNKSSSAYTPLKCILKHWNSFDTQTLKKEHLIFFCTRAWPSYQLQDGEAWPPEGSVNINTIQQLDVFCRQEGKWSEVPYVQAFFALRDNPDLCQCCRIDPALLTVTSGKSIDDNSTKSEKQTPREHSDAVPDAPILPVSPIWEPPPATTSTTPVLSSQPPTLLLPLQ
Sequence of Domain 1: CD80 WT / Domain 2: CD80 WT / Fc (Fc fusion) (chain): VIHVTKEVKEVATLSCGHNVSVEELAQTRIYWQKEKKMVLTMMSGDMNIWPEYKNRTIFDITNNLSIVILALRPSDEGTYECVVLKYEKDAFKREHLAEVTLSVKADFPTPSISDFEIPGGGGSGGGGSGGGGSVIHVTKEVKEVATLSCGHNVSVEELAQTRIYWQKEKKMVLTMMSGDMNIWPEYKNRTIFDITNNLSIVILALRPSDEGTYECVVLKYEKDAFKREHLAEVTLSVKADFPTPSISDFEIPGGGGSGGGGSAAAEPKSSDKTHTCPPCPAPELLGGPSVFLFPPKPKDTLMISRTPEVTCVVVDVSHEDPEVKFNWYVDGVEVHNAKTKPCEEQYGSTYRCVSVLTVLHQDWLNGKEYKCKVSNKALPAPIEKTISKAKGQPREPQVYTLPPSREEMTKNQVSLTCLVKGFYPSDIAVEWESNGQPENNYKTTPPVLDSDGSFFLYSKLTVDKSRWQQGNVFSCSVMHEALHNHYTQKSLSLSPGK
Sequence of PD-L1 (human) (Q9NZQ7 19-290 limits assumed): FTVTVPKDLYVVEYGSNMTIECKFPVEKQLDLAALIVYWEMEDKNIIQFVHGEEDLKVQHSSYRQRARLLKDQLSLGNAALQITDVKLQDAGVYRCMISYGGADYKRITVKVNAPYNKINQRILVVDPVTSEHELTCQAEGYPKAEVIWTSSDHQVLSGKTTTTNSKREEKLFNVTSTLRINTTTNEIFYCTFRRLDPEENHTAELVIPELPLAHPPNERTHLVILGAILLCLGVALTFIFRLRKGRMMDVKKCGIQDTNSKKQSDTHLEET
Sequence of Wildtype CD112-IgV Fc (Q92692 32-156 limits assumed): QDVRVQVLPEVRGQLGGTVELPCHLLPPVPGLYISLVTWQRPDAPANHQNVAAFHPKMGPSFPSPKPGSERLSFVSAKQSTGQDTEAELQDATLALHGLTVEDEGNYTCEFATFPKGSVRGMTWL
Sequence of human B7-H6, full-length, expressed on transfected Expi293 cells (human) (Q68D85 25-454): as the sequence (Q68D85 25-454) above
Sequence of CD112R (human) (Q6DKI7 whole entry): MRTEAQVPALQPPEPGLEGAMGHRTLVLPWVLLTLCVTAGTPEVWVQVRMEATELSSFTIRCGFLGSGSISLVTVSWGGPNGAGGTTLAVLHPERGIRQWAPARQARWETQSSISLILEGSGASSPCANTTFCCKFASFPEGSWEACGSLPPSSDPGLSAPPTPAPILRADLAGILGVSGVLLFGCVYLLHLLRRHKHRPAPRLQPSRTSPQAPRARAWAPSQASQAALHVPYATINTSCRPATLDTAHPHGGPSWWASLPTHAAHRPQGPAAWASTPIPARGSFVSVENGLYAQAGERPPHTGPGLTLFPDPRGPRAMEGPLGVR
Sequence of human CD112R, full length, expressed on transfected Expi293 cells (human) (Q6DKI7 whole entry): as above
Sequence of CD112R (full length, expressed on transfected cells) (human) (Q6DKI7 whole entry): as above
Sequence of human ICOS, full-length, expressed on transfected Expi293 cells (human) (Q9Y6W8 21-199 limits assumed): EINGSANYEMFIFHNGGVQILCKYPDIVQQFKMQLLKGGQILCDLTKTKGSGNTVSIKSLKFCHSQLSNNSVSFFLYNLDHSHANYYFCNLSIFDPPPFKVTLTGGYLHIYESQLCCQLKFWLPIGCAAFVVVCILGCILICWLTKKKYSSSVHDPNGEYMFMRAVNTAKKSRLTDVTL
Sequence of human ICOS (human) (Q9Y6W8 whole entry): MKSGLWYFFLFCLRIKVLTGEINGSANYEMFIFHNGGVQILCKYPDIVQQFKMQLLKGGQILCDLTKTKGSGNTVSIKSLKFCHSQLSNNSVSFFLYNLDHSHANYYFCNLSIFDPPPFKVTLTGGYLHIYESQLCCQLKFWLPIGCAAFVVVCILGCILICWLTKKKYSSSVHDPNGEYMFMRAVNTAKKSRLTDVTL

Substance: stacked Fc fusion, Domain 1: ICOSL WT / Domain 2: Nkp30 WT
- MFI [9]: 7920 MFI
- MFI [10]: 70300 MFI
- MFI [11]: 118000 MFI
- WT parental MFI ratio (ratio to WT stack) [11]: 1

Substance: CD112 IgV R12W, Y33H, N47K, Q79R, S118Y Fc fusion (from UniProt Q92692 32-156)
- MFI at 20 nM [12]: 1120
- MFI at 20 nM [13]: 2640

Substance: variant PD-L1 ECD-Fc I36T, G52R, M97L, V112A, K144E, V175A, P198T (Fc fusion)
- MFI at 20 nM [6]: 149
- MFI at 20 nM [7]: 81
- Fold Change Compared to WT PD-L1 [8]: 0 fold

Substance: Domain 1: CD80 WT / Domain 2: CD80 WT / Fc (Fc fusion)
- MFI [1]: 1630
- MFI [23]: 4700
- MFI [2]: 6300

Substance: Domain 1: CD80 I67T/L70Q/A91G/T120S / Domain 2: CD80 E88D/K89R/D90K/A91G/F92Y/K93R / Fc (Fc fusion)
- WT parental MFI ratio [24]: 0.57
- WT parental MFI ratio [25]: 0.16
- MFI [1]: 938
- MFI [2]: 995

Substance: variant PD-L1 ECD-Fc K57R, S99G, F189L (from UniProt Q9NZQ7 19-239) (Fc fusion)
- MFI at 20 nM [6]: 12900
- Fold Change Compared to WT PD-L1 [33]: 96.3 fold

Substance: Domain 1: CD80 WT / Domain 2: Nkp30 WT / Fc (Fc fusion)
- WT parental MFI ratio [32]: 1
- MFI [1]: 13700
- MFI [16]: 110000

Substance: Domain 1: NKp30 WT / Domain 2: CD86 WT / Fc (Fc fusion)
- WT parental MFI ratio [34]: 1
- MFI [1]: 1690
- MFI [16]: 14100

Results, then the substance that gave them:

- MFI [1]: 3000
- MFI [2]: 2970
- MFI [3]: 14400
- MFI [4]: 14400
- MFI [5]: 3000
Substance: Domain 1: ICOSL WT / Domain 2: CD80 WT / Fc (Fc fusion)

- MFI at 20 nM [6]: 190
- MFI at 20 nM [7]: 69
- Fold Change Compared to WT PD-L1 [8]: 0 fold
Substance: variant PD-L1 ECD-Fc I36T, I46V, D55G, M97L, K106E, K144E, T185A, R195G (Fc fusion)

- MFI [14]: 6540 MFI
Substance: CD112 variant S118Y IgV-Fc fusion (from UniProt Q92692 32-156)

- WT parental MFI ratio [15]: 1
- MFI [1]: 7020
- MFI [16]: 88800
Substance: Domain 1: NKp30 WT / Domain 2: CD80 WT / Fc (Fc fusion)

- MFI 100 nM [17]: 4270 MFI
Substance: CD112 variant G82S, S118Y IgV-Fc (from UniProt Q92692 32-156) (Fc fusion)

- Fold change to WT [18]: 0.1 fold
- MFI at 66.6 nM [18]: 2600 MFI
- Fold change to WT [19]: 0 fold
- MFI at 66.6 nM [19]: 2230 MFI
- MFI at 22.2 nM [20]: 5160 MFI
- Ratio of CTLA4:CD28 [21]: 0.9
Substance: CD80 IgV-Fc I30T/L70R (Fc fusion)

- MFI [22]: 51900 MFI
Substance: CD112 variant A95V, A112I IgV-Fc fusion (from UniProt Q92692 32-156)

- Fortebio binding to PD-1-Fc Response Units (Response Units) [26]: -0.006
- MFI at 50 nM [27]: 1890
- Fold increase over wildtype PD-L2 IgV-Fc [28]: 0.19 fold
Substance: variant PD-L2 IgV-Fc H15Q, R76G, I85F (SEQ ID NO 1505) (Fc fusion)

- MFI at 100 nM [29]: 8540 MFI
- MFI at 100 nM [30]: 4840 MFI
Substance: Wildtype CD112-IgV Fc (from UniProt Q92692 32-156) (Fc fusion)

- WT parental MFI ratio [31]: 0.32
- WT parental MFI ratio [32]: 0.5
- MFI [1]: 4340
- MFI [16]: 55700
Substance: Domain 1: CD80 (R29H/Y31H/T41G/Y87N/E88G/K89E/D90N/A91G/P109S) / Domain 2: NKp30 (L30V/A60V/S64P/S86G) / Fc (Fc fusion)

- WT parental MFI ratio [35]: 0.42
- WT parental MFI ratio [25]: 0.31
- MFI [23]: 1990
- MFI [2]: 1930
Substance: Domain 1: CD80 R29V/Y31F/K36G/M38L/M43Q/E81R/V83I/L85I/K89R/D90L/A91E/F92N/K93Q/R94G / Domain 2: CD80 E88D/K89R/D90K/A91G/F92Y/K93R / Fc (Fc fusion)

- Fortebio binding to PD-1-Fc Response Units (Response Units) [26]: 1.45
- MFI at 50 nM [27]: 61000
- Fold increase over wildtype PD-L2 IgV-Fc [28]: 6.2 fold
Substance: variant PD-L2 IgV-Fc I13V, H15Q, T47A, Q82R, V89D (SEQ ID NO 1545) (Fc fusion)

From patent US20200040059A1
